Data: PMC2173521

Key:
[1] = target: N-1 peptide (derived from HRA of the SV5 F protein) (SV5 (W3A strain))
[2] = target: N-1 peptide (derived from HRA of the SV5 F protein) (SV5 (W3A strain)); experiment: AUC

C-1 peptide (derived from HRB of the SV5 F protein), wild type
IC50 inhibition of cell–cell fusion by SV5 F (T7 luciferase reporter gene assay) [1]: 38 nM

C-1 peptide I449A
IC50 inhibition of cell–cell fusion by SV5 F (T7 luciferase reporter gene assay) [1]: 115 nM
Mobs/Mcalc (mol wt found over that calculated for one N-1/C-1 heterodimer) [2]: 2.8

C-1 peptide I449F
IC50 inhibition of cell–cell fusion by SV5 F (T7 luciferase reporter gene assay) [1]: 151 nM
Mobs/Mcalc (mol wt found over that calculated for one N-1/C-1 heterodimer) [2]: 2.9

C-1 peptide I449G
IC50 inhibition of cell–cell fusion by SV5 F (T7 luciferase reporter gene assay) [1]: 271 nM
Mobs/Mcalc (mol wt found over that calculated for one N-1/C-1 heterodimer) [2]: 2.9

C-1 peptide I449L
IC50 inhibition of cell–cell fusion by SV5 F (T7 luciferase reporter gene assay) [1]: 54 nM
Mobs/Mcalc (mol wt found over that calculated for one N-1/C-1 heterodimer) [2]: 2.8

C-1 peptide I449V
IC50 inhibition of cell–cell fusion by SV5 F (T7 luciferase reporter gene assay) [1]: 58 nM
Mobs/Mcalc (mol wt found over that calculated for one N-1/C-1 heterodimer) [2]: 3

C-1 peptide I449W
IC50 inhibition of cell–cell fusion by SV5 F (T7 luciferase reporter gene assay) [1]: 146 nM

C-1 peptide L447A
IC50 inhibition of cell–cell fusion by SV5 F (T7 luciferase reporter gene assay) [1]: 92 nM
Mobs/Mcalc (mol wt found over that calculated for one N-1/C-1 heterodimer) [2]: 2.8

C-1 peptide L447F
IC50 inhibition of cell–cell fusion by SV5 F (T7 luciferase reporter gene assay) [1]: 100 nM
Mobs/Mcalc (mol wt found over that calculated for one N-1/C-1 heterodimer) [2]: 2.9

C-1 peptide L447G
IC50 inhibition of cell–cell fusion by SV5 F (T7 luciferase reporter gene assay) [1]: 150 nM
Mobs/Mcalc (mol wt found over that calculated for one N-1/C-1 heterodimer) [2]: 2.7

C-1 peptide L447I
IC50 inhibition of cell–cell fusion by SV5 F (T7 luciferase reporter gene assay) [1]: 50 nM
Mobs/Mcalc (mol wt found over that calculated for one N-1/C-1 heterodimer) [2]: 2.8

C-1 peptide L447V
IC50 inhibition of cell–cell fusion by SV5 F (T7 luciferase reporter gene assay) [1]: 83 nM
Mobs/Mcalc (mol wt found over that calculated for one N-1/C-1 heterodimer) [2]: 2.8

C-1 peptide L447W
IC50 inhibition of cell–cell fusion by SV5 F (T7 luciferase reporter gene assay) [1]: 106 nM
Mobs/Mcalc (mol wt found over that calculated for one N-1/C-1 heterodimer) [2]: 3.1
